One series deals with T1, SIRT1 (Homo sapiens, UniProt Q96EB6).
T1 sequence (Q96EB6 1-747): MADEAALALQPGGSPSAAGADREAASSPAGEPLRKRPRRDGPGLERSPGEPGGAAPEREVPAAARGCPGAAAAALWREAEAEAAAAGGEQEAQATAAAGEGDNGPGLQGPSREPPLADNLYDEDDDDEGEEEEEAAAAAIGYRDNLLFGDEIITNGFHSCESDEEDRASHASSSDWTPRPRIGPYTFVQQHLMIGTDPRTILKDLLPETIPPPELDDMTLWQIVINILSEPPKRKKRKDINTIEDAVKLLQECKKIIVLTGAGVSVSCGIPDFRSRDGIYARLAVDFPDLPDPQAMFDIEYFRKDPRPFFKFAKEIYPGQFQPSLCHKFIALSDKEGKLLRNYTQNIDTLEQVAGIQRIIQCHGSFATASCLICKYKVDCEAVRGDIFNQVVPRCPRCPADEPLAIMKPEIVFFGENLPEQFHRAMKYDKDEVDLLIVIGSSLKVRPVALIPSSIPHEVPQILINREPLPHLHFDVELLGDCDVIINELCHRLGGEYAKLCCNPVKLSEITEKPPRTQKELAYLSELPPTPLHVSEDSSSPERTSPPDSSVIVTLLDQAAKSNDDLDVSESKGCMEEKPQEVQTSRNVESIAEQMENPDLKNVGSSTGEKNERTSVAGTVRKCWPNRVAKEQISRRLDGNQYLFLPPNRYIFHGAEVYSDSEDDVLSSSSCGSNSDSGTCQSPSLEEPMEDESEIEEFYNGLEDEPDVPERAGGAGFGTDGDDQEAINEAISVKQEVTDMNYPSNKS
As to conditions: Km of NAD with the named peptide substrate; Sirt1, FRET, Marcotte et al.; cited from earlier work.

A further series addresses T2, Sirt2 (Homo sapiens, UniProt Q8IXJ6).
T2 sequence (Q8IXJ6 1-389): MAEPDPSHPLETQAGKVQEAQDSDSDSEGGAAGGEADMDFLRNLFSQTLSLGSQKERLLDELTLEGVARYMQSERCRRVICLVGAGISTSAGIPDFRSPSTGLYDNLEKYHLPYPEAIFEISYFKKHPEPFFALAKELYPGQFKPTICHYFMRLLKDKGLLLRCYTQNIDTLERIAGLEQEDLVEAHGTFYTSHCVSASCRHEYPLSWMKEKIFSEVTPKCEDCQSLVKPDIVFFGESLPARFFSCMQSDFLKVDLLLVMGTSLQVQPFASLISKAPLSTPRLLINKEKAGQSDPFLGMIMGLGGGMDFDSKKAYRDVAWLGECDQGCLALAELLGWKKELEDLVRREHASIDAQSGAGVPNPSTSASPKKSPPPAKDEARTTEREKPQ
Conditions: Km of NAD with the named peptide substrate; Sirt2, FRET, Marcotte et al.; cited from earlier work.

For series [1], the target named is T3, Ac-EE-K(biotin)-GQSTSSHS-K(Ac)-Nle-STEG-K(5-TMR)-EE-NH2.
T3 chain: GQSTSSHSKXSTEGKEE

Series [2] has as its target T4, Biotin-Nle-PSD-K(Ac)-TIGG-K(MR121)-NH2.
T4 chain: XPSDKTIGGK

No end group written: not given here.

For “p53 20 mer (aa 372-387) *FL: p53 20 mer (aa 372-387) peptide substrate with fluorescent label, FRET assay of Marcotte et al. (KKGQSTSRHKKLMFKT; also: fluorescent label, position not given here; UniProt P04637 372-387, looked up, fragment)”, the values for the Km with SIRT1 and with Sirt2 were 90 µM and 42 µM, respectively.

B1: SIRT1 (protein)
chain: MADEAALALQPGGSPSAAGADREAASSPAGEPLRKRPRRDGPGLERSPGEPGGAAPEREVPAAARGCPGAAAAALWREAEAEAAAAGGEQEAQATAAAGEGDNGPGLQGPSREPPLADNLYDEDDDDEGEEEEEAAAAAIGYRDNLLFGDEIITNGFHSCESDEEDRASHASSSDWTPRPRIGPYTFVQQHLMIGTDPRTILKDLLPETIPPPELDDMTLWQIVINILSEPPKRKKRKDINTIEDAVKLLQECKKIIVLTGAGVSVSCGIPDFRSRDGIYARLAVDFPDLPDPQAMFDIEYFRKDPRPFFKFAKEIYPGQFQPSLCHKFIALSDKEGKLLRNYTQNIDTLEQVAGIQRIIQCHGSFATASCLICKYKVDCEAVRGDIFNQVVPRCPRCPADEPLAIMKPEIVFFGENLPEQFHRAMKYDKDEVDLLIVIGSSLKVRPVALIPSSIPHEVPQILINREPLPHLHFDVELLGDCDVIINELCHRLGGEYAKLCCNPVKLSEITEKPPRTQKELAYLSELPPTPLHVSEDSSSPERTSPPDSSVIVTLLDQAAKSNDDLDVSESKGCMEEKPQEVQTSRNVESIAEQMENPDLKNVGSSTGEKNERTSVAGTVRKCWPNRVAKEQISRRLDGNQYLFLPPNRYIFHGAEVYSDSEDDVLSSSSCGSNSDSGTCQSPSLEEPMEDESEIEEFYNGLEDEPDVPERAGGAGFGTDGDDQEAINEAISVKQEVTDMNYPSNKS
B1 had a Peptide Km (uM), fluorescent polarization deacetylase assay in series [1] of 7.8 µM.

B2: Human SIRT2 enzyme (protein)
chain: MAEPDPSHPLETQAGKVQEAQDSDSDSEGGAAGGEADMDFLRNLFSQTLSLGSQKERLLDELTLEGVARYMQSERCRRVICLVGAGISTSAGIPDFRSPSTGLYDNLEKYHLPYPEAIFEISYFKKHPEPFFALAKELYPGQFKPTICHYFMRLLKDKGLLLRCYTQNIDTLERIAGLEQEDLVEAHGTFYTSHCVSASCRHEYPLSWMKEKIFSEVTPKCEDCQSLVKPDIVFFGESLPARFFSCMQSDFLKVDLLLVMGTSLQVQPFASLISKAPLSTPRLLINKEKAGQSDPFLGMIMGLGGGMDFDSKKAYRDVAWLGECDQGCLALAELLGWKKELEDLVRREHASIDAQSGAGVPNPSTSASPKKSPPPAKDEARTTEREKPQ
As for B2, the Peptide Km (uM), fluorescent polarization deacetylase assay in series [2] was 50 µM.

These data come from US20080293081A1, “Fluorescence Polarization Assays for Acetyltransferase/Deacetylase Activity” (Sirtris Pharmaceuticals, Inc., priority 2005, published 2008).
